Publication PMC10929192, “Hypoxia-activated selectivity-improved anti-PKM2 antibody combined with prodrug TH-302 for potentiated targeting therapy in hepatocellular carcinoma” (International Journal of Biological Sciences, 2024)
Each block holds one binder with its values, some of them ahead of it.

How the values were obtained:
PKM2 Ag in HCC tissues = target: T1, PKM2 Ag in HCC tissues (Homo sapiens (HCC patient tissue), UniProt P14618); assay: immunostaining of cells or tissue; IHC on sections of HCC patient specimens; primary Abs 0.1 mg/mL overnight at 4 °C; goat anti-human IgG-HRP; conditions: one partner purified
T1 construct: M2 splice isoform of pyruvate kinase (PKM2), endogenous in human HCC tissue; source: endogenous, surgical specimens from HCC patients (tissue sections)
T1 sequence (P14618 whole entry, canonical isoform): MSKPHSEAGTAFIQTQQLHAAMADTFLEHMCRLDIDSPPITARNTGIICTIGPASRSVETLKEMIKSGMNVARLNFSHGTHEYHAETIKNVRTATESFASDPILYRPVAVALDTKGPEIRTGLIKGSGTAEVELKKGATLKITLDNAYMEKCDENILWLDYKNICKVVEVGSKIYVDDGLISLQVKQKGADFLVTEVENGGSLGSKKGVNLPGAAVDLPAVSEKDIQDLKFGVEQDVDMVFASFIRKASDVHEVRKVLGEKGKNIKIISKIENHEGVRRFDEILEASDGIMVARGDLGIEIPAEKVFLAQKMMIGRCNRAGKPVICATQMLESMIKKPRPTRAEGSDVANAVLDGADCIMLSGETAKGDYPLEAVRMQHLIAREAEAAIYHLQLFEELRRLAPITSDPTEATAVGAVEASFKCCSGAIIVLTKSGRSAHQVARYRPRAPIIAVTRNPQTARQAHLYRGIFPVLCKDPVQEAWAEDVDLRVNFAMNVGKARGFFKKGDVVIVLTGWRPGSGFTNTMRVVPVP

[1] = target: T2, human PKM2 Ag (M2 splice isoform of pyruvate kinase), purified (Homo sapiens, UniProt P14618); assay: SPR; human PKM2 Ag (20 µg/mL, sodium acetate buffer, pH 5) on a CM5 chip; serial dilutions of the Abs injected at 20 μL/min, 120 s binding, 300 s dissociation; 1:1 kinetic binding model; Biacore T200; conditions: both partners purified
T2 construct: M2 splice isoform of pyruvate kinase (PKM2), human; also called purified PKM2 antigen
T2 sequence (P14618 whole entry, canonical isoform): as above

[2] = target: T3, PKM2 Ag expressed in HCC cells (HepG2, Huh7) (Homo sapiens (HepG2, Huh7), UniProt P14618); assay: flow cytometry on cells; normoxia-cultured HepG2 and Huh7 cells, EDTA-detached, Abs in serum-free medium 1 h at 37 °C; goat anti-human IgG(H+L)-RDM; conditions: one partner purified
T3 construct: M2 splice isoform of pyruvate kinase (PKM2), endogenous in human HCC cell lines; living cells were incubated with the antibodies at 37 °C; the antibody is said to internalize; also called expressed PKM2 Ag; source: endogenous, HepG2 and Huh7 cells
T3 sequence (P14618 whole entry, canonical isoform): as above

- binding result (PKM2 Ag in HCC tissues): binds
- binding result [1]: binds
B1: human full-length H103 Ab (anti-PKM2 antibody, IgG1) (antibody, V domains shown)
VH: QVQLQESGPGLVRPSGTLSLICAVSGDSISSSIWWSWVRQSPGKGLEWIGYIYHNGNTYYNPSLESRVTISVDTSENQFSLKLSSVTAADTAVYYCARGYDSSGYYWTDDRYYFDYWGQGTLVTVSS
VL: NFMLTQPHSVSESPGKTVTISCTGSSGSIASNYVQWYQQRPGSAPTTVIYEDNQRPPGVPDRFSGSIDSSSNSASLTISALETEDEADYYCQSYDSRNIDVVFGGGTKVTVL
notes: the first five amino acids were replaced by those of germline IGHV4-4*02; constant region of human IgG1 (from the expression vector pcMV3-H103-H); light chain constant region from the vector pcMV3-H103-L; IgG1; codon optimised; also called parental H103 Ab; parent H103 Ab

- binding result [2]: binds
- binding result (PKM2 Ag in HCC tissues): binds
- binding result [1]: binds
B2: Na2S2O4-cleaved HAP103 Ab (act-HAP103) (antibody, V domains shown)
VH: B1 VH
VL: B1 VL
notes: as the VH of m1; constant region of human IgG1, as in m1; as the VL of m1; as the light chain constant region of m1; IgG1; also called act-HAP103 Ab; act-HAP Ab; source: HAP103 Ab incubated with Na2S2O4 in carbonate buffer pH 8.0 at RT for 2 h, ultrafiltration
